Assay results from the Human Domainome abundance scans (Beltran et al. 2025).

B1: Gamma-crystallin C, residues 91 to 170; numbered along this chain, P07315 (parent)
chain: RLYEREDHKGLMMELSEDCPSIQDRFHLSEIRSLHVLEGCWVLYELPNYRGRQYLLRPQEYRRCQDWGAMDAKAGSLRRV
B2: Transitional endoplasmic reticulum ATPase, residues 26 to 106; numbered along this chain, P55072 (parent)
chain: LIVDEAINEDNSVVSLSQPKMDELQLFRGDTVLLKGKKRREAVCIVLSDDTCSDEKIRMNRVVRNNLRVRLGDVISIQPCP

Variants of: B1
Experiment: abundance fitness (aPCA) (normalised: wild type 0, dead -1); higher = more abundant; growth selection in yeast, the domain comes from the species named
Conditions: Homo sapiens

Abundance fitness, by site and new letter:
G75: V -0.815 | S -0.479 | E -0.984 | A -0.607 | H -0.736 | C -0.516 | Q -0.746 | T -0.949 | L -0.826 | R -0.933 | N -0.767 | W -0.989 | P -0.84 | D -0.705
E60: Q 0.034 | R 0.006 | T -0.081 | Y -0.069 | L -0.001 | M -0.162 | C -0.172 | P -0.142 | W -0.206 | S -0.018 | H -0.174 | I -0.219 | V -0.117 | K -0.197 | A 0.045 | D -0.235 | F -0.468
A74: D -0.749 | V 0.036 | P -0.779 | S -0.314 | Q -0.797 | E -0.56 | Y -0.781 | T -0.128 | L -0.454 | G -0.454 | I 0.124 | M -0.836 | C -0.177
Q59: K 0.135 | L -0.438 | F -0.377 | M -0.038 | D -0.217 | N -0.364 | V -0.266 | G 0.02 | W -0.486 | R -0.047 | I -0.145 | S -0.116 | H -0.245 | P -0.994 | A 0.041 | E -0.354 | C -0.052
D71: P -0.933 | Y -0.134 | F -0.148 | S -0.015 | M -0.443 | C -0.029 | R -0.224 | I -0.297 | L -0.5 | E -0.185 | G -0.165 | T 0.024 | H -0.173 | A -0.483 | K -0.126 | W -0.281 | N -0.173
L55: C -0.241 | K -0.161 | V -0.087 | S -0.08 | F -0.078 | Q -0.067 | H -0.053 | G -0.082 | W -0.098 | Y 0.161 | T 0.1 | D -0.441 | I 0.075 | M -0.01 | A -0.09 | E -0.074
Y61: G -0.925 | A -1.04 | P -1.07 | L -0.922 | V -1.05 | R -1.06 | M -0.964 | S -0.936 | T -0.529 | C -0.934 | I -0.808 | H -0.919
L77: C -0.325 | I 0.011 | V -0.169 | E -0.966 | T -0.626 | D -0.94 | F -0.304 | A -0.524 | R -1.06 | M -0.035
G68: L -0.529 | S -0.44 | P -0.784 | T -1.01 | A -0.721 | C -0.696 | D -0.679 | Q -0.763 | V -0.985 | R -0.764 | K -0.623
A69: G -0.196 | L -0.935 | R -0.964 | V -0.818 | M -0.847 | Q -0.38 | P -0.968 | W -0.668 | D -0.701 | S -0.074 | T -0.361 | C -0.621
L56: R -0.836 | S -0.957 | M -0.553 | E -0.93 | T -0.636 | G -0.928 | H -0.953 | P -0.931 | A -0.939 | I -0.515 | Y -0.926 | W -0.988 | K -0.806
K73: A -0.069 | S -0.145 | G -0.304 | H -0.042 | P -0.628 | C -0.175 | F -0.368 | Q -0.264 | E -0.495 | Y -0.295 | T -0.124 | R 0.017 | V -0.18 | M -0.231 | L -0.185 | W -0.321 | N -0.026
C64: T -0.213 | P 0.014 | A -0.144 | G -0.597 | W -0.086 | M -0.404 | R -0.653 | H 0.063 | V -0.596 | Q -0.795 | F -0.093 | L -0.841 | Y -0.116 | S -0.285
R57: G -0.134 | H -0.034 | A 0.003 | D -0.174 | C -0.215 | S 0.018 | I -0.566 | F -0.067 | M -0.297 | L -0.24 | V -0.14 | Q -0.045 | T 0.052 | E -0.064 | W -0.179 | K -0.148 | N 0.021
W67: P -0.935 | H -0.89 | T -0.612 | R -0.744 | A -0.944 | K -0.827 | E -1.07 | G -1 | L -0.951 | C -0.703 | S -0.778 | Q -0.681
R79: S -0.202
D66: V -0.749 | T -0.934 | W -0.639 | Y -0.603 | H -0.548 | L -0.518 | M -0.47 | E -0.083 | S -0.316 | P -0.879 | R -0.857 | Q -0.491 | C -0.485 | A -0.313
Q65: N -0.129 | T -0.032 | E -0.044 | Y -0.149 | A -0.075 | L -0.17 | K -0.06 | D -0.355 | V 0.071 | G -0.08 | C -0.265 | R -0.173 | I -0.336 | P -0.687 | H -0.242 | S -0.02 | M -0.283 | F -0.248
P58: A -0.167 | V -0.378 | C -0.334 | F -0.882 | N -0.268 | L -0.98 | R -0.453 | I -0.623 | K -0.15 | H -0.587 | S -0.202 | D -0.167 | T -0.105 | G -0.744
Y54: T -0.717 | W -0.36 | S -0.614
S76: H -0.735 | V -0.773 | P -0.776 | A -0.628 | I 0.016
R63: E -0.234 | H -0.167 | Q -0.089 | F -0.574 | P -1.02 | D -0.58 | Y -0.23 | L -0.654 | S -0.091 | M -0.32 | A -0.056 | T 0.016 | C -0.15
V80: I -0.341 | F -0.1
R62: Q -0.1 | S -0.069 | W -0.073 | D -0.619 | Y -0.252 | N -0.64 | F -0.086 | A 0.07 | T -0.262 | P -0.196 | V -0.365 | M 0.195 | E -0.6 | G -0.237
M70: T -0.06 | E 0.034 | C -0.217 | K -0.053 | V -0.017 | H 0.049 | S -0.052 | D 0.094 | L -0.063 | I 0.097 | R -0.016 | W -0.257 | Y -0.105 | G -0.167 | F -0.226 | P 0.064
A72: F -0.5 | P -0.007 | V -0.554 | R -0.782 | W -0.365 | M -0.997 | S -0.058 | I -0.745 | T -0.207 | G -0.118 | H -0.375 | N -0.066 | Y -0.452

Variants of: B2
Experiment: as above
Conditions: Homo sapiens

Abundance fitness: each site, then its substitutions
D54: V -0.016
D49: T -0.01
A6: T 0.046
N66: S -0.044
N65: G -0.066
P19: W -0.016
R40: E -0.051
L34: E -1.01
L1: G -0.662
